This assay concerns the target recombinant human PD-L1 (amino acids 19-239 of NP_054862.1) expressed with a C-terminal human IgG1 Fc tag (human). Put plainly: SPR (Biacore 3000): 100 nM hPD-L1-hFc + 500 nM mAb on captured hPD-1-mFc, 25C.

Sequence of recombinant human PD-L1 (amino acids 19-239 of NP_054862.1) expressed with a C-terminal human IgG1 Fc tag (human) (chain, as listed by the source limits assumed): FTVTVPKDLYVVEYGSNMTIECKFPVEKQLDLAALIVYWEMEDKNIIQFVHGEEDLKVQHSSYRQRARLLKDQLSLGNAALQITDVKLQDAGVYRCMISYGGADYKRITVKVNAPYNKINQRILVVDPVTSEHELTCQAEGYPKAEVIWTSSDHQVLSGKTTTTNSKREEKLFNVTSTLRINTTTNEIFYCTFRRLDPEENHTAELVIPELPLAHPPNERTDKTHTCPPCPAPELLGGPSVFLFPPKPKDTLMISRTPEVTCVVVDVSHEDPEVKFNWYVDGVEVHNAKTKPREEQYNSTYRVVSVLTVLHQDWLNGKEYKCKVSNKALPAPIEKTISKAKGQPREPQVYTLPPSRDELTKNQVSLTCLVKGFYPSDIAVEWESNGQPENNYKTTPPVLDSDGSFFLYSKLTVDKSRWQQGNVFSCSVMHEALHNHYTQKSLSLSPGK

Consider “Isotype control antibody (Table 13, Biacore assay of human Fc antibodies)”, for which the % Blocking was determined as 0%.

The record behind these values is US20210380702A1.
